The data set has as its system Arabidopsis thaliana T1 plants. The data set can be described thus: Mesotrione tolerance of transgenic Arabidopsis thaliana T1 plants (spray, bleached leaf area grade, damage score). The data set is classed as in vivo. Set-up: Scores: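 damage score 0-100 computed as Σ(N×S)/(T×M)×100 over grades 0-3 with higher meaning more damage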. The note with it: Arabidopsis thaliana T1 plants; for Grade 0 (classification and statistics of the grade of pesticide damage; number of plants) / Grade 1 (classification and statistics of the grade of pesticide damage; number of plants) / Grade 2 (classification and statistics of the grade of pesticide damage; number of plants) / Grade 3 (classification and statistics of the grade of pesticide damage; number of plants): 16 plants. An excerpt:
T1 transformants were initially selected from the untransformed seeds using a glufosinate selection scheme. The Arabidopsis thaliana T1 plants (AsHPPD-02) into which the AsHPPD-02 nucleotide sequence was introduced, the Arabidopsis thaliana T1 plants (AsHPPDm-F372A-02) into which the AsHPPDm-F372A-02 nucleotide sequence was introduced, the Arabidopsis thaliana T1 plants (AsHPPDm-F383W-02) into which the AsHPPDm-F383W-02 nucleotide sequence was introduced, the Arabidopsis thaliana T1 plants (AsHPPDm-F372A-F383W-02) into which the AsHPPDm-F372A-F383W-02 nucleotide sequence was introduced, the Arabidopsis thaliana T1 plants (DBN11726N) into which the control recombinant expression vector DBN11726N was introduced, and the wild-type Arabidopsis thaliana plants (CK) (18 days after sowing) were sprayed respectively with topramezone at three concentrations (100 g ai/ha (four-fold field concentration, 4×), 200 g ai/ha (eight-fold field concentration, 8×), and 0 g ai/ha (water, 0×)), isoxaflutole at three concentrations (140 g ai/ha (two-fold field concentration, 2×), 280 g ai/ha (four-fold field concentration, 4×), and 0 g ai/ha (water, 0×)), and mesotrione at three concentrations (210 g ai/ha (two-fold field concentration, […]), 420 g ai/ha (four-fold field concentration, 4×), and 0 g ai/ha (water, 0×)), to determine the tolerance of Arabidopsis thaliana to the herbicides. The degree of damage caused by the herbicide was measured for each plant according to the proportion of bleached leaf area (the proportion of bleached leaf area=bleached leaf area/total leaf area×100%) 7 days after spraying (7 DAT): the case where there is basically no bleached phenotype is defined as grade 0, the case where the proportion of bleached leaf area is less than 50% is defined as grade 1, the case where the proportion of bleached leaf area is more than 50% is defined as grade 2, and the case where the proportion of bleached leaf area is 100% grade is defined as grade 3.
According to the method as described above in point 6 of Example 1, the aforementioned Arabidopsis thaliana T1 plants and wild-type Arabidopsis thaliana plants (CK) (18 days after sowing) were sprayed respectively with topramezone at three concentrations (25 g ai/ha (one-fold field concentration, 1×). 100 g ai/ha (four-fold field concentration, 4×), and 0 g ai/ha (water, 0×)), isoxaflutole at three concentrations (35 g ai/ha (half-fold field concentration, 0.5×). 70 g ai/ha (one-fold field concentration, 1×), and 0 g ai/ha (water, 0×)), and mesotrione at three concentrations (52.5 g ai/ha (half-fold field concentration, 0.5×), 105 g ai/ha (one-fold field concentration, 1×), and 0 g ai/ha (water, 0×)) to detect the tolerance of Arabidopsis thaliana to the herbicides.
According to the method as described above in point 6 of Example 1, the aforementioned Arabidopsis thaliana T1 plants and wild-type Arabidopsis thaliana plants (CK) (18 days after sowing) were sprayed with topramezone at three different concentrations (i.e., 100 g ai/ha (four-fold field concentration, 4×), 200 g ai/ha (eight-fold field concentration, 8×) and 0 g ai/ha (water, 0×)), isoxaflutole at three different concentrations (i.e., 140 g ai/ha (two-fold field concentration, 2×), 280 g ai/ha (four-fold field concentration, 4×) and 0 g ai/ha (water, 0×)), and mesotrione at three different concentrations (i.e., 210 g ai/ha (two-fold field concentration, 2×), 420 g ai/ha (four-fold field concentration, 4×) and 0 g ai/ha (water, 0×)) respectively to detect the herbicide tolerance of Arabidopsis thaliana. […]

B1: PfHPPDm-F372A-02: nucleotide sequence encoding Pseudomonas fluorescens HPPD with F372A; vector DBN11771 (nucleic acid)
DNA: ATGGCCGATTTGTACGAGAACCCAATGGGACTCATGGGTTTCGAGTTCATTGAGTTCGCTTCCCCCACCCCAGGTACTTTGGAGCCTATTTTCGAGATCATGGGCTTCACTAAGGTTGCCACACACAGGTCTAAGAATGTGCATCTCTACCGCCAAGGAGAGATTAACCTGATCCTTAACAATGAGCCTAATAGCATCGCCTCATACTTCGCTGCTGAGCATGGTCCATCTGTTTGCGGCATGGCTTTCAGAGTGAAGGATTCACAAAAGGCCTACAACAGGGCTTTGGAGCTCGGCGCCCAGCCCATTCATATCGACACCGGACCTATGGAGCTGAATCTTCCTGCCATTAAGGGCATCGGCGGAGCTCCATTGTACCTCATTGATCGCTTCGGCGAGGGCTCCTCTATCTACGATATCGACTTCGTGTACCTGGAGGGCGTTGAGAGAAACCCTGTGGGAGCTGGTCTGAAGGTTATCGACCACCTTACTCATAATGTTTACAGAGGAAGGATGGTGTACTGGGCCAACTTCTACGAGAAGCTGTTCAATTTCCGCGAGGCTAGATACTTCGATATTAAGGGCGAGTACACAGGACTTACCTCCAAGGCCATGTCTGCTCCCGACGGTATGATTAGGATCCCATTGAACGAGGAGAGCTCAAAGGGCGCCGGACAGATTGAGGAGTTCCTCATGCAATTCAATGGTGAAGGCATCCAGCACGTTGCTTTCCTGACAGATGACCTTGTGAAGACCTGGGATGCCCTCAAGAAGATTGGCATGAGGTTCATGACCGCTCCACCTGACACTTACTACGAGATGTTGGAGGGACGCCTCCCTGATCATGGCGAGCCCGTTGACCAGCTGCAAGCTAGAGGAATCCTCCTGGATGGTTCCTCTGTGGAGGGCGACAAGAGGCTTTTGCTCCAAATTGCTAGCGAGACTCTTATGGGACCCGTGTTCTTCGAGTTCATCCAGAGGAAGGGCGATGACGGATTCGGCGAGGGCAACTTCAAGGCCCTGTTCGAGTCTATTGAGAGAGATCAGGTGAGGCGCGGCGTTCTTACAGCTGACTGA
modifications: PfHPPDm-F372A-02 Nucleotide Sequence
notes: vector DBN11771
Turning to B1, under “mesotrione 52.5 g ai/ha”, the Resistance evaluation entry was “Moderately”; the Scores was 31; the “Grade 0 (classification and statistics of the grade of pesticide damage; number of plants)” value stood at 6; the “Grade 1 (classification and statistics of the grade of pesticide damage; number of plants)” value is 7. For the same molecule, for the setting “mesotrione 52.5 g ai/ha”, the “Grade 2 (classification and statistics of the grade of pesticide damage; number of plants)” value came to 1; the “Grade 3 (classification and statistics of the grade of pesticide damage; number of plants)” value is on record as 2. Besides, for the setting “mesotrione 105 g ai/ha”, the Resistance evaluation entry is on record as “Poorly resistant”; the Scores amounted to 58; the “Grade 0 (classification and statistics of the grade of pesticide damage; number of plants)” value is 0; the “Grade 1 (classification and statistics of the grade of pesticide damage; number of plants)” value was found to be 4. Under “mesotrione 105 g ai/ha”, the “Grade 2 (classification and statistics of the grade of pesticide damage; number of plants)” value is recorded as 12; the “Grade 3 (classification and statistics of the grade of pesticide damage; number of plants)” value is given as 0.

B2: PfHPPDm-F383W-02: nucleotide sequence encoding Pseudomonas fluorescens HPPD with F383W; vector DBN11772 (nucleic acid)
DNA: ATGGCCGATTTGTACGAGAACCCAATGGGACTCATGGGTTTCGAGTTCATTGAGTTCGCTTCCCCCACCCCAGGTACTTTGGAGCCTATTTTCGAGATCATGGGCTTCACTAAGGTTGCCACACACAGGTCTAAGAATGTGCATCTCTACCGCCAAGGAGAGATTAACCTGATCCTTAACAATGAGCCTAATAGCATCGCCTCATACTTCGCTGCTGAGCATGGTCCATCTGTTTGCGGCATGGCTTTCAGAGTGAAGGATTCACAAAAGGCCTACAACAGGGCTTTGGAGCTCGGCGCCCAGCCCATTCATATCGACACCGGACCTATGGAGCTGAATCTTCCTGCCATTAAGGGCATCGGCGGAGCTCCATTGTACCTCATTGATCGCTTCGGCGAGGGCTCCTCTATCTACGATATCGACTTCGTGTACCTGGAGGGCGTTGAGAGAAACCCTGTGGGAGCTGGTCTGAAGGTTATCGACCACCTTACTCATAATGTTTACAGAGGAAGGATGGTGTACTGGGCCAACTTCTACGAGAAGCTGTTCAATTTCCGCGAGGCTAGATACTTCGATATTAAGGGCGAGTACACAGGACTTACCTCCAAGGCCATGTCTGCTCCCGACGGTATGATTAGGATCCCATTGAACGAGGAGAGCTCAAAGGGCGCCGGACAGATTGAGGAGTTCCTCATGCAATTCAATGGTGAAGGCATCCAGCACGTTGCTTTCCTGACAGATGACCTTGTGAAGACCTGGGATGCCCTCAAGAAGATTGGCATGAGGTTCATGACCGCTCCACCTGACACTTACTACGAGATGTTGGAGGGACGCCTCCCTGATCATGGCGAGCCCGTTGACCAGCTGCAAGCTAGAGGAATCCTCCTGGATGGTTCCTCTGTGGAGGGCGACAAGAGGCTTTTGCTCCAAATTTTCAGCGAGACTCTTATGGGACCCGTGTGGTTCGAGTTCATCCAGAGGAAGGGCGATGACGGATTCGGCGAGGGCAACTTCAAGGCCCTGTTCGAGTCTATTGAGAGAGATCAGGTGAGGCGCGGCGTTCTTACAGCTGACTGA
modifications: PfHPPDm-F383W-02 Nucleotide Sequence
notes: vector DBN11772
Take B2: for the setting “mesotrione 52.5 g ai/ha”, the Resistance evaluation result is on record as “Non-resistant”; the Scores was 77; the “Grade 0 (classification and statistics of the grade of pesticide damage; number of plants)” value is given as 0; the “Grade 1 (classification and statistics of the grade of pesticide damage; number of plants)” value was 0. Besides, for the setting “mesotrione 52.5 g ai/ha”, the “Grade 2 (classification and statistics of the grade of pesticide damage; number of plants)” value is 11; the “Grade 3 (classification and statistics of the grade of pesticide damage; number of plants)” value is reported as 5. Besides, under “mesotrione 105 g ai/ha”, the Resistance evaluation result is reported as “Non-resistant”; the Scores is on record as 100; the “Grade 0 (classification and statistics of the grade of pesticide damage; number of plants)” value is reported as 0; the “Grade 1 (classification and statistics of the grade of pesticide damage; number of plants)” value is recorded as 0. Where the note is “mesotrione 105 g ai/ha”, the “Grade 2 (classification and statistics of the grade of pesticide damage; number of plants)” value is 0; the “Grade 3 (classification and statistics of the grade of pesticide damage; number of plants)” value was found to be 16.
